Laboratory results from patent US12459997B2, “Compounds and methods targeting interleukin-19” (Eli Lilly and Company, priority 2018, dated 2025).

Tests used:
[1] = target: T1, recombinant human IL-19 (Homo sapiens, UniProt Q9UHD0); assay: Bio-layer interferometry (BLI) binding kinetics and affinity (Octet Red96); conditions: 25° C.; 1:1 binding model
T1 sequence (Q9UHD0 25-177): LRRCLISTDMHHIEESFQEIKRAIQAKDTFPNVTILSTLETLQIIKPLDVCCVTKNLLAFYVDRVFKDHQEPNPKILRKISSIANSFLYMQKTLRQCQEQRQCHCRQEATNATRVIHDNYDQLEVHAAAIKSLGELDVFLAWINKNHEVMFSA
Method: Bio-layer interferometry (BLI) assay, measured with a Octet Red96® instrument available from ForteBio (using HBS-EP+ running buffer (GE Healthcare, 10 mM Hepes pH7.4+150 mM NaCl+3 mM EDTA+0.05% surfactant P20) at 25° C.), is used to measure binding of the exemplified IL-19 antibodies of the present invention to recombinant human IL-19 (having the amino acid sequence set for in SEQ ID NO: 1).
Except as noted, all reagents and materials are from ForteBio (Freemont, Calif.). An AMQ biosensor is used to immobilize antibody of interest for analysis. […] Recombinant human IL-19 is prepared to concentrations of 270, 90, 30, 10, 3.33, 1.11, 0.370, and 0 (blank) nM by dilution into running buffer. Each analysis consists of: (1) capturing antibody samples on biosensors for 300 secs; (2) establishing a baseline by incubating antibody loaded biosensors with running buffer for 60 secs; (3) incubating antibody loaded biosensors with serially diluted recombinant human IL-19 for 300 secs to monitor association phase; (4) return of biosensor to running buffer to monitor dissociation phase.
Binding data is processed using standard double-referencing and fit to a 1:1 binding model using Data Analysis v9.0 evaluation software, to determine the association rate (kon, M^−1 s^−1 units), dissociation rate (koff, s^−1 units), and Rmax (nm units). The equilibrium dissociation constant (KD) was calculated from the relationship KD=koff/kon, and is in molar units.

[2] = target: T1, recombinant human IL-19; assay: HDX-MS epitope mapping; format: binding; conditions: IL-19:antibody molar ratio 1:1.2
Method: Briefly, HDX-MS is performed on a Waters nanoACQUITY system with HDX technology, including a LEAP HDX robotic liquid handling system and mass analysis is performed on a Waters Xevo G2-Tof mass spectrometer. […] The deuterium exchange experiment is initiated adding 55 uL of D2O buffer containing 0.1×PBS to 5 ul of human IL-19 or the human IL-19/antibody complex at 15° C. for various amounts of time (0 s, 10 s, 1 min, 10 min, 60 min, 120/240 min). The reaction is quenched using equal volume of was 0.32M TCEP, 0.1M phosphate pH 2.5 for two minutes at 1° C. 50 μL of the quenched reaction is injected on to an on-line pepsin column (Waters BEH Enzymate) at 14° C., using 0.2% formic acid in water as the mobile phase at a flow rate of 100 μL/min for 4 min. The resulting peptic peptides are then separated on a C18 column (Waters, Acquity UPLC BEH C18, 1.7 m, 1.0 mm×50 mm) fit with a Vanguard trap column using a 3 to 85% acetonitrile (containing 0.2% formic acid) gradient over 10 min at a flow rate of 50 L/min. The separated peptides are directed into a Waters Xevo G2 time-of-flight (qTOF) mass spectrometer. […] The relative deuterium incorporation for each peptide is determined by processing the MS data for deuterated samples along with the non-deuterated control in DynamX.

[3] = target: T2, human IL-19 / human IL-20R beta Fc-fusion protein (Homo sapiens, UniProt Q9UHD0); assay: BLI in vitro neutralization: IL-19 captured by antibody, then incubated with IL-20R beta Fc; conditions: block of IL-19 binding to soluble receptor
T2 sequence (Q9UHD0 25-177): T1 sequence (Q9UHD0 25-177)
From the text: Alternatively, a biophysical assay such as bio-layer interferometry (BLI) may be used for assessing neutralization of IL-19 by antibodies of the present invention. Binding between a ligand immobilized on the biosensor tip surface and an analyte in solution produces an increase in optical thickness at the biosensor tip, which results in a wavelength shift (expressed in nm). According to such assay, the IL-19 receptor (i.e., […]) is expressed in a membrane-free manner (such as with an Fc-fusion e.g. IL20Rbeta Fc chimera protein from R&D Systems catalog 1788-IR-050). […] The immobilized antibodies are then incubated with recombinant human IL-19 protein diluted to 100 nM using HBS-EP+ running buffer (GE Healthcare, 10 mM Hepes pH7.4+150 mM NaCl+3 mM EDTA+0.05% surfactant P20) for 240-300 secs. The human IL-19, after binding to the anti-IL-19 antibody, is assessed by incubation with human IL-20R beta Fc-fusion protein for 240-300 secs. The ability of the antibody to block or neutralize binding of the IL-19 ligand to the soluble receptor is observed as a minimal (<0.025 nm) increase in the wavelength during this step of the assay.

B1: R_39: rabbit-derived IL-19 antibody; LC SEQ ID NO: 310, HC SEQ ID NO: 311 (antibody)
heavy: QEQLKESGGGLVQPGGSLKLSCKASGFDLSSYGVSWVRQAPGKGLEWIGYIDPVFGSTYYANWVNGRFTISSDNAQNTLYLQLNSLTAADTATYFCARGSGYVYYGYTYDLWGPGTLVTVSSGQPKAPSVFPLAPCCGDTPSSTVTLGCLVKGYLPEPVTVTWNSGTLTNGVRTFPSVRQSSGLYSLSSVVSVTSSSQPVTCNVAHPATNTKVDKTVAPSTCSKPTCPPPELLGGPSVFIFPPKPKDTLMISRTPEVTCVVVDVSQDDPEVQFTWYINNEQVRTARPPLREQQFNSTIRVVSTLPIAHQDWLRGKEFKCKVHNKALPAPIEKTISKARGQPLEPKVYTMGPPREELSSRSVSLTCMINGFYPSDISVEWEKNGKAEDNYKTTPAVLDSDGSYFLYSKLSVPTSEWQRGDVFTCSVMHEALHNHYTQKSISRSPGK
light: DIVMTQTPASVEAAVGGTVTIKCQASQSIYRYLSWYQQKPGQRPKLLIYGASNLASGVSSRFKGSGSGTEFTLTISDLECADAATYYCQSYYYSSSSGYGNVFGGGTEVVVKGDPVAPTVLIFPPAADQVATGTVTIVCVANKYFPDVTVTWEVDGTTQTTGIENSKTPQNSADCTYNLSSTLTLTSTQYNSHKEYTCKVTQGTTSVVQSFNRGDC
kon [1]: 206000 M⁻¹ s⁻¹
residues of SEQ ID NO. 1 with decreased deuterium uptake in complex with antibody (epitope region) [2]: residues 42-60 ([…]), 90-107 ([…]), and 149-160 ([…])
Neutralization [3]: Yes (minimal (<0.025 nm) increase in the wavelength)
